This series relates to Escherichia coli TOP10. Nature of the series: shrunken log2 fold change of peptide-encoding DNA abundance (4.5 h post-induction vs induction); higher = less antimicrobial activity (less host growth inhibition). Conditions: time post-induction: 4.5 h; library: site-saturation at positions 5, 18, 19, 20.
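Also: peptides expressed intracellularly from a pBAD plasmid library in pooled LB shake-flask culture, induced with 0.3% L-arabinose, DNA abundance read by NGS, three biological replicates, DESeq2 with apeglm shrinkage.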

Regarding RRIRFRPPRLPRPRPRPSKTPRP, the “shrunken log2 fold change” value amounted to 0.0514.

Take RRIRWRPPRLPRPRPRPHTNPRP: the “shrunken log2 fold change” value was -0.283.

Consider RRIRWRPPRLPRPRPRPSTNPRP, for which the “shrunken log2 fold change” value is -0.127. On to RRIRDRPPRLPRPRPRPNLYPRP, for which the “shrunken log2 fold change” value is -0.0872. For RRIRIRPPRLPRPRPRPFDFPRP, the “shrunken log2 fold change” value is -0.181. With RRIRRRPPRLPRPRPRPSFSPRP the figure was -0.411.

Regarding RRIRIRPPRLPRPRPRPMVTPRP, the “shrunken log2 fold change” value was -0.018. As to RRIRFRPPRLPRPRPRPYYHPRP, the “shrunken log2 fold change” value is -0.146. With RRIRVRPPRLPRPRPRPNMEPRP, the “shrunken log2 fold change” value is -0.151. Turning to RRIRTRPPRLPRPRPRPKIWPRP, the “shrunken log2 fold change” value turned out to be 0.141. Turning to RRIRTRPPRLPRPRPRPFNKPRP, the “shrunken log2 fold change” value was 0.0555. In the case of RRIRCRPPRLPRPRPRPSMMPRP, the “shrunken log2 fold change” value was -0.307. With RRIRFRPPRLPRPRPRPWADPRP, the “shrunken log2 fold change” value was -0.168. For the sequence RRIRWRPPRLPRPRPRPPIQPRP, the “shrunken log2 fold change” value was determined as 0.277. In the case of RRIRKRPPRLPRPRPRPKMKPRP, the “shrunken log2 fold change” value came out at 0.444. With RRIRIRPPRLPRPRPRPEYQPRP the figure was 0.00783. With RRIRKRPPRLPRPRPRPFRRPRP the figure was 0.0327. RRIRGRPPRLPRPRPRPAVHPRP: the “shrunken log2 fold change” value stood at 0.536. For RRIRSRPPRLPRPRPRPQMWPRP, the “shrunken log2 fold change” value is 0.0996.

For RRIRKRPPRLPRPRPRPIHCPRP, the “shrunken log2 fold change” value worked out at 0.0163. With RRIRCRPPRLPRPRPRPMGDPRP the figure was -0.0113. With RRIRRRPPRLPRPRPRPVMFPRP the figure was 0.155; with RRIRARPPRLPRPRPRPICEPRP, 0.512. Consider RRIRLRPPRLPRPRPRPVNFPRP, for which the “shrunken log2 fold change” value is -0.13. Regarding RRIRWRPPRLPRPRPRPKYQPRP, the “shrunken log2 fold change” value is -0.231. To RRIRTRPPRLPRPRPRPLWEPRP belongs -0.0281; to RRIRTRPPRLPRPRPRPCRSPRP, -0.0198; to RRIRARPPRLPRPRPRPTHVPRP, 0.813. To RRIRPRPPRLPRPRPRPDRQPRP belongs 0.099; to RRIRYRPPRLPRPRPRPVIWPRP, -0.262; to RRIRQRPPRLPRPRPRPSPDPRP, 0.262.

As to RRIRIRPPRLPRPRPRPQKPPRP, the “shrunken log2 fold change” value is -0.00327. In the case of RRIRPRPPRLPRPRPRPPAFPRP, the “shrunken log2 fold change” value amounted to 0.166. RRIRSRPPRLPRPRPRPKVFPRP: the “shrunken log2 fold change” value was -0.063.

For the sequence RRIRHRPPRLPRPRPRPCHEPRP, the “shrunken log2 fold change” value was -0.0201. To RRIRLRPPRLPRPRPRPWCRPRP belongs 0.0427; to RRIRMRPPRLPRPRPRPNGYPRP, 0.0495; to RRIRGRPPRLPRPRPRPKLWPRP, 0.896. To RRIRRRPPRLPRPRPRPWIHPRP belongs -0.147; to RRIRTRPPRLPRPRPRPITSPRP, 0.0903. Take RRIRIRPPRLPRPRPRPYPVPRP: the “shrunken log2 fold change” value is -0.18. To RRIRNRPPRLPRPRPRPEMAPRP belongs 0.321; to RRIRSRPPRLPRPRPRPSFKPRP, -0.542. To RRIRMRPPRLPRPRPRPTIGPRP belongs 0.277. With RRIRARPPRLPRPRPRPDMTPRP the figure was 0.723; with RRIRQRPPRLPRPRPRPAMGPRP, 0.127. For the sequence RRIRERPPRLPRPRPRPNCLPRP, the “shrunken log2 fold change” value was -0.297. To RRIRSRPPRLPRPRPRPRSDPRP belongs 0.223; to RRIRPRPPRLPRPRPRPKEFPRP, -0.0187. As to RRIRGRPPRLPRPRPRPHTVPRP, the “shrunken log2 fold change” value was -0.311.

RRIRCRPPRLPRPRPRPGEMPRP: the “shrunken log2 fold change” value stood at 0.438.

Regarding RRIRQRPPRLPRPRPRPDTGPRP, the “shrunken log2 fold change” value was -0.0117. With RRIRYRPPRLPRPRPRPMVQPRP the figure was 0.0303.

On to RRIRKRPPRLPRPRPRPHNKPRP, for which the “shrunken log2 fold change” value was -0.0934. For the sequence RRIRRRPPRLPRPRPRPTPIPRP, the “shrunken log2 fold change” value stood at 1.03. With RRIRSRPPRLPRPRPRPPQVPRP the figure was -0.0457. Take RRIRWRPPRLPRPRPRPTGSPRP: the “shrunken log2 fold change” value was determined as 0.123.

Regarding RRIRTRPPRLPRPRPRPHQAPRP, the “shrunken log2 fold change” value is -0.00677. With RRIRQRPPRLPRPRPRPNEEPRP the figure was 2.87; with RRIRLRPPRLPRPRPRPWFQPRP, -0.0555; with RRIRVRPPRLPRPRPRPAYHPRP, -0.316. For RRIRARPPRLPRPRPRPPEIPRP, the “shrunken log2 fold change” value came out at 0.301.

For RRIRIRPPRLPRPRPRPENKPRP, the “shrunken log2 fold change” value is -0.663. With RRIRCRPPRLPRPRPRPSHAPRP the figure was -0.375; with RRIRYRPPRLPRPRPRPTYFPRP, -0.485; with RRIRHRPPRLPRPRPRPTLVPRP, -0.233. Regarding RRIRDRPPRLPRPRPRPYNNPRP, the “shrunken log2 fold change” value was -0.489. Regarding RRIRNRPPRLPRPRPRPYPYPRP, the “shrunken log2 fold change” value is -0.242. Take RRIRQRPPRLPRPRPRPMLKPRP: the “shrunken log2 fold change” value was -0.106.

For the sequence RRIRCRPPRLPRPRPRPMIEPRP, the “shrunken log2 fold change” value is -0.117. To RRIRARPPRLPRPRPRPFHHPRP belongs -0.294; to RRIRPRPPRLPRPRPRPNCLPRP, -0.0395; to RRIRQRPPRLPRPRPRPMWPPRP, 0.269. To RRIRCRPPRLPRPRPRPIGGPRP belongs -0.17; to RRIRRRPPRLPRPRPRPHLAPRP, -0.0318; to RRIRYRPPRLPRPRPRPYCIPRP, -1.32.

Turning to RRIRTRPPRLPRPRPRPLRRPRP, the “shrunken log2 fold change” value stood at 0.323.

Turning to RRIRIRPPRLPRPRPRPSCRPRP, the “shrunken log2 fold change” value was -0.644. Consider RRIRARPPRLPRPRPRPEMKPRP, for which the “shrunken log2 fold change” value came out at 3.7. With RRIRTRPPRLPRPRPRPGIFPRP the figure was -0.146; with RRIRVRPPRLPRPRPRPFYKPRP, -0.502; with RRIRMRPPRLPRPRPRPYRPPRP, -0.117.

Consider RRIRRRPPRLPRPRPRPNMLPRP, for which the “shrunken log2 fold change” value was -0.061. With RRIRMRPPRLPRPRPRPLGHPRP, the “shrunken log2 fold change” value came out at 0.751.

Regarding RRIRMRPPRLPRPRPRPQHDPRP, the “shrunken log2 fold change” value was -0.202. With RRIRNRPPRLPRPRPRPDLSPRP the figure was -0.0537.

RRIRCRPPRLPRPRPRPITDPRP: the “shrunken log2 fold change” value was -0.442. With RRIRYRPPRLPRPRPRPRVYPRP, the “shrunken log2 fold change” value is -0.847.

As to RRIRFRPPRLPRPRPRPKDFPRP, the “shrunken log2 fold change” value was -0.158. With RRIRQRPPRLPRPRPRPVHFPRP the figure was -0.00916; with RRIRSRPPRLPRPRPRPPWKPRP, -0.0556. Take RRIRHRPPRLPRPRPRPCFGPRP: the “shrunken log2 fold change” value was found to be 0.104. RRIRVRPPRLPRPRPRPIEQPRP: the “shrunken log2 fold change” value was -0.14. With RRIRSRPPRLPRPRPRPFFVPRP, the “shrunken log2 fold change” value was -0.184.

As for RRIRCRPPRLPRPRPRPKVWPRP, the “shrunken log2 fold change” value is 0.261. In the case of RRIRWRPPRLPRPRPRPWLRPRP, the “shrunken log2 fold change” value came to 0.0741. Regarding RRIRYRPPRLPRPRPRPFNEPRP, the “shrunken log2 fold change” value was -1.01. In the case of RRIRCRPPRLPRPRPRPAHDPRP, the “shrunken log2 fold change” value is 0.031. With RRIRERPPRLPRPRPRPFNNPRP the figure was -0.39; with RRIRHRPPRLPRPRPRPSRKPRP, 0.094; with RRIRNRPPRLPRPRPRPTCLPRP, -0.0993. For the sequence RRIRWRPPRLPRPRPRPIQPPRP, the “shrunken log2 fold change” value was 0.0851. Turning to RRIRQRPPRLPRPRPRPSCYPRP, the “shrunken log2 fold change” value was -0.396. To RRIRCRPPRLPRPRPRPAVMPRP belongs 0.067; to RRIRKRPPRLPRPRPRPNEEPRP, -1.35e-05; to RRIRQRPPRLPRPRPRPRCLPRP, 0.176.

Consider RRIRYRPPRLPRPRPRPHCEPRP, for which the “shrunken log2 fold change” value is -0.00822. On to RRIRVRPPRLPRPRPRPASYPRP, for which the “shrunken log2 fold change” value turned out to be 0.0708.

Take RRIRNRPPRLPRPRPRPSNCPRP: the “shrunken log2 fold change” value is -0.801.

As to RRIRYRPPRLPRPRPRPNKKPRP, the “shrunken log2 fold change” value was -0.298. With RRIRQRPPRLPRPRPRPAEMPRP the figure was -0.0227.

Regarding RRIRWRPPRLPRPRPRPQKVPRP, the “shrunken log2 fold change” value is 0.166.

Take RRIRWRPPRLPRPRPRPQIMPRP: the “shrunken log2 fold change” value was -0.0336. To RRIRERPPRLPRPRPRPCTSPRP belongs -0.0275. With RRIRQRPPRLPRPRPRPLAGPRP, the “shrunken log2 fold change” value came to 0.166. As for RRIRGRPPRLPRPRPRPLKLPRP, the “shrunken log2 fold change” value was 0.164. For the sequence RRIRQRPPRLPRPRPRPLLIPRP, the “shrunken log2 fold change” value was -0.141. To RRIRDRPPRLPRPRPRPAWQPRP belongs 0.861; to RRIRYRPPRLPRPRPRPVVIPRP, -0.868; to RRIRVRPPRLPRPRPRPRCDPRP, -0.0186.

Turning to RRIRFRPPRLPRPRPRPGQLPRP, the “shrunken log2 fold change” value is -0.0429.

In the case of RRIRCRPPRLPRPRPRPQYTPRP, the “shrunken log2 fold change” value is -0.946.

Take RRIRNRPPRLPRPRPRPAPAPRP: the “shrunken log2 fold change” value came to 0.959.

As for RRIRMRPPRLPRPRPRPAMAPRP, the “shrunken log2 fold change” value is 0.778. For the sequence RRIRIRPPRLPRPRPRPMQQPRP, the “shrunken log2 fold change” value turned out to be 0.0184.
